# Columns and labels:
# [1] = biological target: β-spectrin consisting of residues 1898–2083 (Spβ) (UniProt P11277); experiment: ITC
# [2] = biological target: β-spectrin (Homo sapiens) (UniProt P11277); experiment: ITC; conditions: cited from earlier work
# [3] = biological target: β-spectrin (Homo sapiens) (UniProt P11277); experiment: ITC; conditions: cited from earlier work; remark: listed apart in the source
# [4] = biological target: β-spectrin (Homo sapiens) (UniProt P11277); experiment: ITC; conditions: cited from earlier work; remark: listed apart in the source
# [5] = biological target: β-spectrin (Homo sapiens) (UniProt P11277); experiment: ITC; conditions: cited from earlier work; remark: listed apart in the source
# spin labeled SpαΔ 49R1 = spin labeled SpαΔ 49R1 (UniProt P02549); experiment: spin label EPR titration
Kd [1],Substance,further results
0.9 µM,cysteine-less fragment of the first 368 residues of α-spectrin (from UniProt P02549 1-368) (domain or fragment),
1.5 µM,spin labeled SpαΔ 20R1 (from UniProt P02549 1-368) (domain or fragment),
2.9 µM,spin labeled SpαΔ 45R1 (from UniProt P02549 1-368) (domain or fragment),
5.9 µM,spin labeled SpαΔ 46R1 (from UniProt P02549 1-368) (domain or fragment),
3.1 µM,spin labeled SpαΔ 48R1 (from UniProt P02549 1-368) (domain or fragment),
> 30 µM,spin labeled SpαΔ 49R1 (from UniProt P02549 1-368) (domain or fragment),
3.3 µM,spin labeled SpαΔ 53R1 (from UniProt P02549 1-368) (domain or fragment),
,α-spectrin (from UniProt P02549),Kd [2]: 0.5 µM; Kd [3]: 0.4 µM; Kd [4]: 14 µM; Kd [5]: > 200 µM
,β-spectrin consisting of residues 1898–2083 (Spβ) (from UniProt P11277 1898-2083) (domain or fragment),Kd (spin labeled SpαΔ 49R1): 98 µM

# — PMC2659877
